Measured values reported in patent publication US20040018199A1.

How the values were obtained:
Cadherin 11 (human) = Cadherin 11 (human) (UniProt P55287); experiment: yeast two-hybrid (PathCalling)
[1] = molecular target: Prey 2832217 protein (C11orf15 protein) (human) (UniProt Q9NQ34); experiment: yeast two-hybrid (PathCalling)
Lumican (human) = Lumican (human) (UniProt P51884); experiment: yeast two-hybrid (PathCalling); forty-eight independent experiments
UniProt P51884, sequence (P51884 217-338 limits assumed, form in doubt): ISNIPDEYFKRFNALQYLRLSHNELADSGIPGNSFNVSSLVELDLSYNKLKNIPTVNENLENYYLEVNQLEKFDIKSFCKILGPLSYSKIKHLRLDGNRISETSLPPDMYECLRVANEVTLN

UniProt Q9NQ34, sequence (Q9NQ34 35-167 limits assumed, form in doubt): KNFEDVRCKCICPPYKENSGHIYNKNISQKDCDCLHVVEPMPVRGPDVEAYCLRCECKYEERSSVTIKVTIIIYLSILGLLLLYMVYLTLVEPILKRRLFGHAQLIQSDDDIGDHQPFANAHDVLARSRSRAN
UniProt P55287, sequence (P55287 154-796 limits assumed, form in doubt): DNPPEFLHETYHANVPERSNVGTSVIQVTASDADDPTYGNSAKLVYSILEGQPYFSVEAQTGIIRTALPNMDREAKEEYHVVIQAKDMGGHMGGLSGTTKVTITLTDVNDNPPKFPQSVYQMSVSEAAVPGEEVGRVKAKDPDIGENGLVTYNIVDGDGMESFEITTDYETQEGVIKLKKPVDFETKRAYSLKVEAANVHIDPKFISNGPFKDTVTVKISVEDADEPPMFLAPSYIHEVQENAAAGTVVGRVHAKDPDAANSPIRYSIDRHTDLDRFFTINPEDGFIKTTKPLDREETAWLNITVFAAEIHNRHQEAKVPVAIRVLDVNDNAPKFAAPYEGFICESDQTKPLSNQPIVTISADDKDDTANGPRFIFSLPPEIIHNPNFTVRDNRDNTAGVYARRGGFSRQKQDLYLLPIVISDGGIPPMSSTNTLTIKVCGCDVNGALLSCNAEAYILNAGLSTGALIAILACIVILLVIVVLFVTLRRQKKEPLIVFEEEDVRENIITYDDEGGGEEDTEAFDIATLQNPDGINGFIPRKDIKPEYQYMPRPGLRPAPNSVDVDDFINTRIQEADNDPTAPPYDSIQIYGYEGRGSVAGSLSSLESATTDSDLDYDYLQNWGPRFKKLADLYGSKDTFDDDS

- interaction rating score (Cadherin 11 (human)): 2.7
- interaction rating score [1]: 9.6
- interaction rating score (Lumican (human)): 9.99
Substance: CG54020 (EPHA8), ephrin type-A receptor 8 (from UniProt P29322 28-207)
